B1: MLL4_(ePHD6)_(1475–1564) (domain or fragment, human, UniProt O14686 1475-1564, looked up)
chain: VSCMQCGAASPGFHCEWQNSYTHCGPCASLVTCPICHAPYVEEDLLIQCRHCERWMHAGCESLFTEDDVEQAADEGFDCVSCQPYVVKPV
notes: MLL4 (KMT2D, ALR), human, residues 1475–1564: the zinc finger before PHD6 and the sixth PHD domain; also called extended PHD6 domain of MLL4; source: E. coli BL21 (DE3) Codon plus RIL, purified (Ni-NTA, thrombin, HiTrap Q, Superdex75); not shown: GST, N-terminal, cleaved; His tag, N-terminal, cleaved

Data set [1] deals with the molecule itself. As to the kind of experiment: SEC; gel-filtration profiles of the purified domains (Supplementary Fig. 3). (In general: SEC sorts molecules by how far they enter the pores of the column.)
In data set [2] the target is T1, MLL3_(ePHD6)_(1055–1144) (human, UniProt Q8NEZ4 1055-1144).
T1 construct: MLL3 (KMT2C), human, residues 1055–1144: the zinc finger before PHD6 and the sixth PHD domain; Monomer in solution by gel filtration; the dimer in the crystal is put down to crystal packing; also called extended PHD6 domain of MLL3; source: E. coli BL21 (DE3) Codon plus RIL, purified (Ni-NTA, thrombin, HiTrap Q, Superdex75); not shown: GST, N-terminal, cleaved; His tag, N-terminal, cleaved
T1 sequence (looked up): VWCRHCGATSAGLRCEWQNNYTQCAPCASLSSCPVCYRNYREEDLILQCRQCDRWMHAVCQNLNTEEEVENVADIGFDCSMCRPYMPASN
The data set is described as follows: ITC; peptide (1–2 mM) in the syringe injected into protein (50–100 μM) in the cell; 25 °C; 20 mM Tris pH 7.5, 150 mM NaCl; single-site binding model. The note with it: both partners purified. Background: In ITC the heat of successive injections is recorded.

Data set [3] deals with B1. The description is as above. The note with it: both partners purified.
Data set [4] addresses T2, MLL3_(ePHD6)_(1075–1144) (human, UniProt Q8NEZ4 1075-1144).
T2 construct: MLL3 (KMT2C), human, residues 1075–1144; also called MLL3_ePHD6, residues 1075–1144; source: E. coli BL21 (DE3) Codon plus RIL, purified (Ni-NTA, thrombin, HiTrap Q, Superdex75); not shown: GST, N-terminal, cleaved; His tag, N-terminal, cleaved
T2 sequence (looked up): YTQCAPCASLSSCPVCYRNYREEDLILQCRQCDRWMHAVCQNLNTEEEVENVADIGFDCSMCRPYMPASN
The data set is described as above. The note with it: both partners purified.

Data set [5] concerns the target T3, MLL3_(PHD5-6)_(1008–1144) (human, UniProt Q8NEZ4 1008-1144).
T3 construct: MLL3 (KMT2C), human, residues 1008–1144; also called PHD5–6 of MLL3; source: E. coli BL21 (DE3) Codon plus RIL, purified (Ni-NTA, thrombin, HiTrap Q, Superdex75); not shown: GST, N-terminal, cleaved; His tag, N-terminal, cleaved
T3 sequence (looked up): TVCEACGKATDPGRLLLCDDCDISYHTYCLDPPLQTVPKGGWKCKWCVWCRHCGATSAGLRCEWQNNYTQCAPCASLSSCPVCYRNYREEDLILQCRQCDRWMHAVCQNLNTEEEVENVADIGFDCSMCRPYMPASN
The description is as above. The note with it: both partners purified.

The target in data set [6] is T4, MLL4_(ePHD6)_(1495–1564) (human, UniProt O14686 1495-1564).
T4 construct: MLL4 (KMT2D), human, residues 1495–1564; also called MLL4_ePHD6, residues 1495–1564; source: E. coli BL21 (DE3) Codon plus RIL, purified (Ni-NTA, thrombin, HiTrap Q, Superdex75); not shown: GST, N-terminal, cleaved; His tag, N-terminal, cleaved
Described as above. The note with it: both partners purified.

One may read the stoichiometry N as the number of molecules, sites or subunits per partner or assembly. Regarding B1, in data set [1], the “stoichiometry N” value worked out at 2.

B2: histone H4 peptide H4_(11–21) (peptide, UniProt P62805 12-22, looked up)
peptide: GKGGAKRHRKV
notes: histone H4, residues 11–21; also called H4H18 peptide; source: synthetic peptide (Peptide 2.0 Inc.)
By Kd is commonly meant the free concentration of one partner at which half of the binding sites on the other are occupied at equilibrium, for simple one-to-one binding. As for B2, the Kd turned out to be 35 µM in data set [2]; 52 µM in data set [3]; 31 µM in data set [4]; 83 µM in data set [5]; 48 µM in data set [6].

B3: MLL4_(PHD6)_(1505–1564) (domain or fragment, human, UniProt O14686 1505-1564, looked up)
chain: VTCPICHAPYVEEDLLIQCRHCERWMHAGCESLFTEDDVEQAADEGFDCVSCQPYVVKPV
notes: MLL4 (KMT2D), human, residues 1505–1564 (sixth PHD domain alone); also called PHD6 domain of MLL4; source: E. coli BL21 (DE3) Codon plus RIL, purified (Ni-NTA, thrombin, HiTrap Q, Superdex75); not shown: GST, N-terminal, cleaved; His tag, N-terminal, cleaved
Consider B3, for which the “stoichiometry N” value in data set [1] turned out to be 2.

For the origin of these results see PMC6318328, “Structural insights into trans-histone regulation of H3K4 methylation by unique histone H4 binding of MLL3/4” (Nature Communications, 2019).
